{
  "source": "patent US20080050387A1",
  "about": "“Non-Androgen Dependent Roles for Androgen Receptor and Non-Androgen Related Inhibitors of Androgen Receptor” (priority 2003, published 2008)",
  "molecules": {"B1": {"name": "ARA67: AR N-terminal interacting protein of 585 amino acids (SEQ ID NO:1), matches PAT1; functions as a repressor of AR (protein)", "chain": "MAAVELEWIPETLYNTAISAVVDNYIRSRRDIRSLPENIQFDVYYKLYQQGRLCQLGSEFCELEVFAKVLRALDKRHLLHHCFQALMDHGVKVASVLAYSFSRRCSYIAESDAAVKEKAIQVGFVLGGFLSDAGWYSDAEKVFLSCLQLCTLHDEMLHWFRAVECCVRLLHVRNGNCKYHLGEETFKLAQTYMDKLSKHGQQANKAALYGELCALLFAKSHYDEAYKWCIEAMKEITAGLPVKVVVDVLRQASKACVVKREFKKAEQLIKHAVYLARDHFGSKHPKYSDTLLDYGFYLLNVDNICQSVAIYQAALDIRQSVFGGKNIHVATAHEDLAYSSYVHQYSSGKFDNALFHAERAIGIITHILPEDHLLLASSKRVKALILEEIAIDCHNKETEQRLLQEAHDLHLSSLQLAKKAFGEFNVQTAKHYGNLGRLYQSMRKFKEAEEMHIKAIQIKEQLLGQEDYEVALSVGHLASLYNYDMNQYENAEKLYLRSIAIGKKLFGEGYSGLEYDYRGLIKLYNSIGNYEKVFEYHNVLSNWNRLRDRQYSVTDALEDVSTSPQSTEEVVQSFLISQNVEGPSC"}},
  "key": {"GR": {"target": "T1, GR (Homo sapiens, UniProt P04150)", "T1 construct": "host or cells: H1299", "T1 sequence (P04150 1-777)": "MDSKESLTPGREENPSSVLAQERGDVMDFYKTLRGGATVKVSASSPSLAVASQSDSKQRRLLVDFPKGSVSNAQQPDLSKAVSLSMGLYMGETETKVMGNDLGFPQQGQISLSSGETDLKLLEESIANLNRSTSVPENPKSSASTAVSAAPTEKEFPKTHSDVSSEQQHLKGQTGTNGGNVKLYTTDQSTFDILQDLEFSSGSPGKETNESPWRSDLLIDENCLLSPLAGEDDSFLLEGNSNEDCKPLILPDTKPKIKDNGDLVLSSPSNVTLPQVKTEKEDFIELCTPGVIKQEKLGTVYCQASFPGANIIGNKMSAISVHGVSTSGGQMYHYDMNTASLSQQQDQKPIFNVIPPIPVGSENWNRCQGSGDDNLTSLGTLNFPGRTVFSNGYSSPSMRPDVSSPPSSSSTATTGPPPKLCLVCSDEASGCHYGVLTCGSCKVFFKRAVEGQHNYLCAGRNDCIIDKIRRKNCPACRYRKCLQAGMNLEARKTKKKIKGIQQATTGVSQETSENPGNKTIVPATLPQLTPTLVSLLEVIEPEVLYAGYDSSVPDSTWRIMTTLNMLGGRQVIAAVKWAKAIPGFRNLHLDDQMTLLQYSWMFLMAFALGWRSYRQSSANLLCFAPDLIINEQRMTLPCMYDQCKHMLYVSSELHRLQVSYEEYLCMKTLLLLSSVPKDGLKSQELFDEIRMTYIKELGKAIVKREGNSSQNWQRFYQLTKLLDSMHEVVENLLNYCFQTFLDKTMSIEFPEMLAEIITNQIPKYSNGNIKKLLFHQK", "experiment": "GR transactivation reporter gene assay in H1299 cells with ARA67", "format": "cell-based", "conditions": "500 ng pSG5-ARA67, MMTV-Luc, cognate ligand", "experimental": "(§1) H1299 and COS-1 cells were maintained in Dulbecco's modified Eagle's medium (DMEM) (Life Technologies, Inc.) supplemented with 10% heat inactivated fetal bovine serum (FBS). LNCap cells were maintained in RPMI 1640 supplemented with […]. All media contain 100 units penicillin, 100 μg/ml streptomycin and 2 mM L-glutamine. Cells were seeded to a density of 50-60% confluency for transfection. In transfections where H1299 and COS-1 cells were used, the calcium phosphate precipitation method was used as described (Pan H J, et al. 1999. Endocrine 11:321-327) unless otherwise noted. […] In other reporter gene assays, where ligand treatment was required, cell culture media were changed to DMEM containing 10% charcoal-dextran-stripped FBS (CD-FBS) 2 h before transfection. After 16-18 h transfection, cells were treated with medium containing either vehicle or ligands for another 20-24 h and then cells were harvested. With LNCap cells transfection, the cells were treated with fresh RPMI 1640 containing 10% CD-FBS before transfection with SuperFect performed according to the manufacturer's protocol (Qiagen). After transfection, cells were allowed to recover in fresh RPMI 1640 containing 10% CD-FBS for 8-12 h, and then treated with either vehicle or ligands for another 20-24 h before harvesting. Each experiment was repeated at least three times."}, "microtubules": {"tested_on": "microtubules", "conditions": "in the presence of Mg-ATP; cited from earlier work"}, "AR (ARN, ARDBD, ARLBD)": {"tested_on": "AR (ARN, ARDBD, ARLBD)", "experiment": "GST pull-down assay ARA67 / AR", "format": "binding, human", "experimental": "GST-ARN, GST-ARA67 fusion proteins, and GST control protein were expressed in BL21 (DE3)pLysS bacteria strain (Stratagene) and purified with glutathione-Sepharose beads as instructed by the manufacturer (Amersham Pharmacia). In vitro [^35S]methionine-labeled AR, ARN, AR DBD, AR LBD and ARA67 proteins were generated using TNT-coupled Reticulocyte Lysate Systems (Promega). For in vitro interaction, mixtures of glutathione beads bound GST fusion proteins and 5 μl [^35S]methionine-labeled input proteins in 100 μl interaction buffer (20 mM Tris/pH8.0, 60 mM NaCl, 6 mM MgCl2, 1 mM EDTA, 0.05% Nonidet P-40, 1 mM DTT, 8% glycerol, 1 mM PMSF) were incubated in the presence or absence of 10 μM dihydrotestosterone (DHT) on a rotating disk at 4° C. for 2 h. After washing with NETN buffer (20 mM Tris/pH8.0, 100 mM NaCl, 6 mM MgCl2, 1 mM EDTA, 0.5% Nonidet P-40, 1 mM DTT, 8% glycerol, 1 mM PMSF) four times, the bound proteins were separated on 8-13% SDS-PAGE and visualized by autoradiography."}, "AR N/C interaction": {"tested_on": "AR N/C interaction", "sequence (P10275 552-919 limits assumed)": "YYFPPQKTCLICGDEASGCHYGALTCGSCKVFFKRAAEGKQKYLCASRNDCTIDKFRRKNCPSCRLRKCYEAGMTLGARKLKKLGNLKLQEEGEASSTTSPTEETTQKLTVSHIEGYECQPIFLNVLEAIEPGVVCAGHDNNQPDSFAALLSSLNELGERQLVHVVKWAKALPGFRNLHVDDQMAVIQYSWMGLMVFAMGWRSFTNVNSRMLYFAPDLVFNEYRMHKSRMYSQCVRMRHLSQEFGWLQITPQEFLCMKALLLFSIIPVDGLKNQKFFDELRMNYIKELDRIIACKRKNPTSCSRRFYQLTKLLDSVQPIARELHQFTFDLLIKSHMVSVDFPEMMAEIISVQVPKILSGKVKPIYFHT", "sequence (P10275 1-559 partner limits assumed)": "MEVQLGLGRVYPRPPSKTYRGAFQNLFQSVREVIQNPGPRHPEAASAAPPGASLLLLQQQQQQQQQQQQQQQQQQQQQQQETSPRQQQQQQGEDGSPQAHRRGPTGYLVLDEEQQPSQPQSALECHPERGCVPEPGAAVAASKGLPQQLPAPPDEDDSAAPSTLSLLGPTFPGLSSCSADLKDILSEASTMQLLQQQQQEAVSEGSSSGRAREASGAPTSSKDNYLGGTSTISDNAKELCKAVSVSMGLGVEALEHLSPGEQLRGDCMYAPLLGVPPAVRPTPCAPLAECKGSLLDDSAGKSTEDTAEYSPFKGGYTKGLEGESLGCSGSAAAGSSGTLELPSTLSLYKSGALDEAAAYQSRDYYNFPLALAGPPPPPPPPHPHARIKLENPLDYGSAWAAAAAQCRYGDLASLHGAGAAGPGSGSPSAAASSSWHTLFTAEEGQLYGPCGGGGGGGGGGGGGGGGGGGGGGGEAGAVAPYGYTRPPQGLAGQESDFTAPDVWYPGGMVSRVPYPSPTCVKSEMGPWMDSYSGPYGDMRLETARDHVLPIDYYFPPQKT", "experiment": "AR N/C interaction, mammalian two-hybrid assay in COS-1 cells", "format": "cell-based, human", "conditions": "10 nM DHT", "experimental": "as §1"}, "AR [1]": {"tested_on": "AR", "sequence (P10275 with tags, fused parts or gaps DEL79-80/DUP473-473)": "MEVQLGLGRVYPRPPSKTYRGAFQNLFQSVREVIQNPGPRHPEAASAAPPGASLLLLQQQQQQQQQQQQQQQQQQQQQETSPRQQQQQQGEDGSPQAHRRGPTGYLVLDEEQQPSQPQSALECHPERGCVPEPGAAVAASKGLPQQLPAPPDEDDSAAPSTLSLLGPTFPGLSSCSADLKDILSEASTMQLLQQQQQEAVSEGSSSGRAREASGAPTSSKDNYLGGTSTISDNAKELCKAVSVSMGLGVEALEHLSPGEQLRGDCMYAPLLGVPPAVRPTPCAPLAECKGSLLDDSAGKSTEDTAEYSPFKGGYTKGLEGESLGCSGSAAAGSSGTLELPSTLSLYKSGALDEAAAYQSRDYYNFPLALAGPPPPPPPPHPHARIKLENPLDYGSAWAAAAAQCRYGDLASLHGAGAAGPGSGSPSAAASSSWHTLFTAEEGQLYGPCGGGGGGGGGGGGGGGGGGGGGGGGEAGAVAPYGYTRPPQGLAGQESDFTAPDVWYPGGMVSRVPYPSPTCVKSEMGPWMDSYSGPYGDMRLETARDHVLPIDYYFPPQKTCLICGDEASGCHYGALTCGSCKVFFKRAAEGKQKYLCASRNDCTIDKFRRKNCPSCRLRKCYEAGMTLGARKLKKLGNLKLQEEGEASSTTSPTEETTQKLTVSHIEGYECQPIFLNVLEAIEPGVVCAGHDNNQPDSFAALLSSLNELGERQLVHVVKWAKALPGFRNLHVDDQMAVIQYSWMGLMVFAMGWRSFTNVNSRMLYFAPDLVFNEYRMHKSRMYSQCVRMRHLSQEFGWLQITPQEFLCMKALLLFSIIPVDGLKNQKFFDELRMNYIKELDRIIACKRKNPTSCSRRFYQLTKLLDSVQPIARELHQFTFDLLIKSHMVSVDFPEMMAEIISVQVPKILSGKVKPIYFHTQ", "experiment": "AR transactivation reporter gene assay in H1299 cells with ARA67", "format": "cell-based, human", "experimental": "as §1"}, "ER": {"tested_on": "ER", "experiment": "ER transactivation reporter gene assay in H1299 cells with ARA67", "format": "cell-based", "conditions": "500 ng pSG5-ARA67, ERE-Luc, cognate ligand", "experimental": "as §1"}, "[2]": {"tested_on": "PSA expression in LNCaP cells", "experiment": "DHT induced PSA expression in LNCaP cells transfected with ARA67 (Western blot)", "format": "cell-based, human", "conditions": "pSG5-ARA67 transfected", "experimental": "as §1, with “times. […]” for “times.”"}, "AR [3]": {"tested_on": "AR", "experiment": "AR protein level in H1299 cells (Western blot)", "format": "cell-based, human", "conditions": "pSG5-AR and pKH3-ARA67 1 to 6", "experimental": "Protein samples collected from the cells were separated on 8% SDS-PAGE and transferred to nitrocellulose membranes. Membranes were blocked with 5% nonfat milk in TBST buffer (150 mM NaCl, 10 mM Tris/pH8.0, and 0.5% Tween-20) at room temperature for 1 h. Then the membranes were immunoblotted with primary antibodies for 2 h at room temperature or overnight at 4° C., followed by incubation with secondary antibodies for 1 h at room temperature. Blots were developed with the AP color developing reagents (Bio-Rad)."}},
  "note": "“Also recorded” adds a separate entry of the source. Where two headings read alike, the source gives them in different places.",
  "data": [
    {"molecule": "B1", "values": [
      {"measurement": "suppression on GR", "setting": "GR", "result": 20, "unit": "%"},
      {"measurement": "enhancement of microtubule binding", "setting": "microtubules", "result": "5-10 fold"},
      {"measurement": "interaction with AR LBD", "setting": "AR (ARN, ARDBD, ARLBD)", "result": "moderately"},
      {"measurement": "interaction with ARDBD", "setting": "AR (ARN, ARDBD, ARLBD)", "result": "very weakly"},
      {"measurement": "interaction with ARN", "setting": "AR (ARN, ARDBD, ARLBD)", "result": "most strongly"},
      {"measurement": "interaction with GST-ARN fragment ARN1-140", "setting": "AR (ARN, ARDBD, ARLBD); [35S]methionine-labeled ARA67", "result": "positive interaction"},
      {"measurement": "interaction with ARN", "setting": "AR (ARN, ARDBD, ARLBD); listed as full length ARA67", "result": "strong interaction"},
      {"measurement": "interaction with AR, DHT dependence", "setting": "AR (ARN, ARDBD, ARLBD); presence and absence of 10 μM DHT", "result": "DHT independent manner"},
      {"measurement": "DHT promoted AR N/C interaction", "setting": "AR N/C interaction", "result": "slightly enhanced"},
      {"measurement": "repression of AR activity relative to PR activity", "setting": "AR [1]", "result": "approximately 2.5 times"},
      {"measurement": "suppression on AR activity", "setting": "AR [1]; H1299 cells, 500 ng pSG5-ARA67, MMTV-Luc, cognate ligand", "result": 50, "unit": "%"},
      {"measurement": "DHT-induced AR transactivation", "setting": "AR [1]; H1299 cells, MMTV-Luc and ARE4-Luc, 10 nM DHT", "result": "suppressed"},
      {"measurement": "ARA70N enhanced AR transactivation", "setting": "AR [1]; H1299 cells, PSA-Luc and ARE4-Luc, 10 nM DHT", "result": "repressed dose-dependently"},
      {"measurement": "effect on ER transactivation", "setting": "ER", "result": "nearly unaffected; also recorded: little effect"},
      {"measurement": "DHT induced PSA expression", "setting": "[2]", "result": "decreased"},
      {"measurement": "AR protein level", "setting": "AR [3]", "result": "slightly increased"}
    ]}
  ]
}
